# Laboratory results reported in US20250289849A1, “PEPTIDE TO TREAT ALPHA-SYNUCLEIN AMYLOID BASED DISORDERS” (COUNCIL OF SCIENTIFIC & INDUSTRIAL RESEARCH, priority 2022, published 2025).
# Where no end group is shown, it is not given here.
# Target: T1, human wild-type α-synuclein (Homo sapiens, UniProt P37840)
# T1 construct: made in house; host or cells: E. coli Rosetta(DE3), pT7-7 based expression vector
# Test: In vitro fibrillation assay (Thioflavin T fluorescence)
# Format: biochemical
# Settings: for inhibition of α-synuclein fibrillation (reduction in ThT fluorescence, in words): FIG. 3, α-synuclein 400 μM, equimolar peptide, 37° C., observed upto 6 hr; for increase in α-synuclein fibrillation (fluorescence intensity), compared to penetratin: FIG. 4A, zoomed Y-axis of FIG. 3 data; for normalized ratio of ThT fluorescence amplitude at 5 h versus 0 h, compared with SEQ.ID.-4: FIG. 4B
# Procedure: FIG. 1. […] The α-synuclein fibrillation was monitored using ThioflavinT (ThT), a dye that specifically binds to amyloids. The binding of ThT results in increase of its fluorescence intensity at 482 nm. Purified α-synuclein (400 μM) was incubated at 37° C. with shaking in the presence and absence of equimolar concentration of indicated peptides. Amyloid formation was determined by monitoring ThT fluorescence at different time intervals.
# FIG. 3. […] The α-synuclein fibrillation was monitored using ThioflavinT (ThT) dye, which specifically binds to amyloids, with its subsequent increase in fluorescence intensity recorded at 482 nm. The purified α-synuclein (400 μM) was incubated at 37° C. with shaking, in the presence and absence of equimolar concentration of indicated peptides. Amyloid formation was determined by monitoring ThT fluorescence at different time intervals.
# FIG. 4A. The inhibition of α-synuclein fibrillation in the presence of different peptides as indicated by SEQ.IDs. The data is same as in FIG. 3A except that only the enhanced (zoomed) Y-axis for α-synuclein fibrillation in the presence of peptides is shown for clarity.
# FIG. 4B. The ratio of the amplitude at 5 h versus 0 h for each of the curve was calculated and normalized.
# Thioflavin T (ThT) (4 mM) was added to 400 μM of purified α-synuclein with and without Cell penetrating peptides at equimolar concentration in a 96 microwell plate. The plate was incubated at 37° C. with a shaking speed of 900 rpm in linear mode in a multimode plate reader (TECAN infinite M200 PRO). Fluorescence kinetics was measured after every 15 minutes with emission wavelength of 482 nm upon excitation at 442 nm. Each experiment was repeated at least three times.
"inhibition of α-synuclein fibrillation (reduction in ThT fluorescence, in words)",Substance,"increase in α-synuclein fibrillation (fluorescence intensity), compared to penetratin","normalized ratio of ThT fluorescence amplitude at 5 h versus 0 h, compared with SEQ.ID.-4"
inhibits α-synuclein fibrillation,SEQ.ID.-6: Cyclic derivative synthesized by introducing Cys residue at N-terminal and C-terminal of SEQ.ID.-4 sequence (CRQIKIWFQNRRMKWKKC; not fully specified (bridges); cysteine pairing not given here),,
inhibits α-synuclein fibrillation,"SEQ.ID.-7: shorter truncated version of SEQ.ID.-4, further cyclized (CKIWFQNRRMKC; not fully specified (bridges); also: cyclized, mode not given here)",did not allow increase in α-synuclein fibrillation,significantly better inhibitor of fibrillation than of SEQ.ID.-4
inhibits α-synuclein fibrillation,"SEQ.ID.-8: shorter and cyclized derivative of SEQ.ID.-4 with an additional mutation (CKIWFANRRMKC; not fully specified (bridges); also: cyclized, mode not given here)",did not allow increase in α-synuclein fibrillation,significantly better inhibitor of fibrillation than of SEQ.ID.-4
